This is an account of results in patent US20260256782.

The test system of the series is ZF3-KRAB (MR-32054 bicistronic component) (synthetic construct). The experiment in a line: cell_activity. Particulars: 48 h, 0.5 ug/ml, combined effect with ZF9-MQ1, binding not measured directly.
ZF3-KRAB (MR-32054 bicistronic component) (synthetic construct), sequence (chain, as listed by the source): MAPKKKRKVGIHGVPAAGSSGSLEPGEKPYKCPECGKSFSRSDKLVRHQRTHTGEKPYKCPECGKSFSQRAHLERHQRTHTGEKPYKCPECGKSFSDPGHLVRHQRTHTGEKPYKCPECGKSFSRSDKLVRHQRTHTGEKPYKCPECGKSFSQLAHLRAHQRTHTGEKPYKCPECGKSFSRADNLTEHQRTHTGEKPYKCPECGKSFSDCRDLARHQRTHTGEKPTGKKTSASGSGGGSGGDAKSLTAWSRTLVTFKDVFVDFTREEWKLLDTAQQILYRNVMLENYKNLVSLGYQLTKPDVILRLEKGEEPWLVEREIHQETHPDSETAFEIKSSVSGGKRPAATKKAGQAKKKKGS

As for “MYC upstream anchor (CTCF) ZF3 target site”, the activity (% MYC protein reduction) (H1975 cells) stood at 30 and the activity (% MYC protein reduction) (PC9 cells) turned out to be 47.
